Substrate in this series: CC(=O)N[C@H]1[C@H](O[C@H]2[C@H](O)[C@@H](NC(C)=O)[C@@H](OP(=O)(O)OP(=O)(O)OCCC(C)CCCC(C)CCCC(C)CCCC(C)C)O[C@@H]2CO)O[C@H](CO)[C@@H](O[C@@H]2O[C@H](CO[C@H]3O[C@H](CO)[C@@H](O)[C@H](O)[C@@H]3O)[C@@H](O)[C@H](O)[C@@H]2O)[C@@H]1O
In words: UPLC-MS mannosyltransferase assay, nonlinear regression. The class given is biochemical, Homo sapiens. Conditions: 2 mM GDP-Man, 10 mM MgCl2, pH 6.0, 0.05% NP-40, 37 °C, 10 min, substrate range 8-200 μM, substrate not further purified.

B1: hAlg2 (Trx-hAlg2) (Homo sapiens) (protein)
chain: MAEEQGRERDSVPKPSVLFLHPDLGVGGAERLVLDAALALQARGCSVKIWTAHYDPGHCFAESRELPVRCAGDWLPRGLGWGGRGAAVCAYVRMVFLALYVLFLADEEFDVVVCDQVSACIPVFRLARRRKKILFYCHFPDLLLTKRDSFLKRLYRAPIDWIEEYTTGMADCILVNSQFTAAVFKETFKSLSHIDPDVLYPSLNVTSFDSVVPEKLDDLVPKGKKFLLLSINRYERKKNLTLALEALVQLRGRLTSQDWERVHLIVAGGYDERVLENVEHYQELKKMVQQSDLGQYVTFLRSFSDKQKISLLHSCTCVLYTPSNEHFGIVPLEAMYMQCPVIAVNSGGPLESIDHSVTGFLCEPDPVHFSEAIEKFIREPSLKATMGLAGRARVKEKFSPEAFTEQLYRYVTKLLV
notes: N-terminal His6-Trx tag kept (pET32), expressed in E. coli Rosetta (DE3), HisTrap purified; about 57 kDa on SDS-PAGE
With B1, the Km was determined as 136.7 ± 30.4 µM and the kcat worked out at 1.05 ± 0.13 s⁻¹.

The Km is the concentration of substrate that gives half-maximal velocity. As usually defined, the kcat is the maximal rate divided by the concentration of active sites.

For the origin of these results see publication PMC8827073, “Topological and enzymatic analysis of human Alg2 mannosyltransferase reveals its role in lipid-linked oligosaccharide biosynthetic pathway” (Communications Biology, 2022).
